Ends that are not written are not given here. * marks the point of attachment. Crotonyl(E) = C/C=C/C(=O)*
Columns and labels:
[1] = target: GFP-GAS41 H43S protein (recombinant) (human, UniProt O95619 1-227, H43S); experiment: MST
[2] = target: GAS41 YEATS domain (residues 11–150) (human, UniProt O95619 11-150); experiment: ITC
Chain of GAS41 YEATS domain (residues 11–150) (O95619 11-150): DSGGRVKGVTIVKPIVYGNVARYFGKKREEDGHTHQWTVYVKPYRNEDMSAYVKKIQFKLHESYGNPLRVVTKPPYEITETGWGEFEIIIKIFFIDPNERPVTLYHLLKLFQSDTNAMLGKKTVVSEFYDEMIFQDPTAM

Chain of GFP-GAS41 H43S protein (recombinant) (O95619 whole entry H43S, the tested form may be a part): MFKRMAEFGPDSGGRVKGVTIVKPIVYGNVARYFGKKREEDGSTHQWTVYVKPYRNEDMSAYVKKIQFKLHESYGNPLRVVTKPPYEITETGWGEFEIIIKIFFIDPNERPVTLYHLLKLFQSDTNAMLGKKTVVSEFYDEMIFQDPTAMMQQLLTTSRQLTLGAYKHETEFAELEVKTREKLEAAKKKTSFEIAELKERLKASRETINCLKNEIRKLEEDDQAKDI

ATKAARK(Crotonyl(E))SAPATG [Synthesized H3 K27cr (a.a. 21-33) peptide]
fold reduction in binding against GAS41 wt [1]: 6 fold
Kd [2]: 22.9 µM

ATKAARK(Ac)SAPATG [Synthesized H3 K27ac (a.a. 21-33) peptide]
fold reduction in binding against GAS41 wt [1]: ~2 fold
Kd [2]: 51.5 µM
